Results: the supplement of paper PMC9170038
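Also: bound reporter read as fluorescence of individual clusters on recovered sequencing chips by microscopy, with normalized cluster intensities fitted with a binding model.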

What follows are sequences tested on K4 kissing-loop RNA reporter (assay: apparent KD of K4 kissing-loop reporter; higher = weaker reporter binding). Settings: Eterna round: R107; input ligand: theophylline 20 uM.
Procedure: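 RNA-MaP round R107: designed RNA switches with theophylline, tryptophan, arginine or FMN aptamers are transcribed on-chip within common flanks. They are titrated with a labelled K4 kissing-loop RNA reporter in RNA-MaP buffer (100 mM Tris pH 7.5, 80 mM KCl, 4 mM MgCl2), without ligand or with the indicated ligand. Median apparent KD per design.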
With “GGUUCUGUUUUAGGUUUAGUGAUGUUGAAUCGAGGACCGGUACGGCCGCCACUCGGUGACGUCGUAACUUUGGAGGUCCUAACCA [theeternabot_exclusion_KL_Trp_A_47]” the “apparent KD of K4 kissing-loop reporter” value was 658 nM. “ACUGCCAUUGCGGCCGCCACUAUCUCACUUUGCGAAUCUGCACCGACUGAGUGAUGUUCGGUAAAUAGGACCGGGCAAUGGGCCG [theeternabot_sameState_KL_Trp_B_26]” was tested, and the “apparent KD of K4 kissing-loop reporter” value was 281 nM. “GCCGUAGAUCGAAGGAGCGUGCAAGAAUCGUAGUGAUGUUACGGAGAGUGUCACGCCGUCGCACAGGUAGGUCGCGAUCUACGGC” was tested, and the “apparent KD of K4 kissing-loop reporter” value was 69.2 nM. With “GGAGGGAUCUCGGCCGCCACUCAUAAGAAAUGGGCCUCAGGGAUAUAGUGAUGUUAUGUAAAGAAGAGGACCGGGAGAAAGAAGG [ExTryptoB.Dc]” the “apparent KD of K4 kissing-loop reporter” value was 348 nM. For “GGAUCCACCAGUGAUGUUGGAGAAAACUCGAAGGAUAUGACGAAAGUCAGAAGGUUGUAGACUGGACAAAGUCCGGUCGGAUCCA [FmnA 23 G30+U56]”, the “apparent KD of K4 kissing-loop reporter” value was 590 nM. With “AAGGGCAGGACUUCCUUGCCGGAUAGAGAUACCAGCCCAGCAAAGGGCCCUUGGCAGCUCACUGACCUCAGUGAUGUUGAGGUUC [Xebisoer]” the “apparent KD of K4 kissing-loop reporter” value was 272 nM. In the case of “GCUACCUAUGCAGGAUAUGGUAUUACGAGUGAUGUUCGAGGCGAAUAGAGUGAUGUUCUAUUUCCACCAGAAGGGCAUAGGUAGC”, the “apparent KD of K4 kissing-loop reporter” value is reported as 136 nM. With “UAUUAAUUGUCAGGAUAUCGAAAUCGAGUGAUGUUCGUAUAUCGACGAUAGUCGAUAUUAUUUAUACGAGAAGGGACAUUAUUUA [JR_SSFMNB_Sub003]” the “apparent KD of K4 kissing-loop reporter” value was 615 nM. With “UCCUAGGCUCGAAAGAGCCUAGGUAAGACUCAGGAUAUCUGGAAACAGAGAAGGGAGCUACUAGUGAUGUUAGGAAUUCCCUAAG” the “apparent KD of K4 kissing-loop reporter” value was 119 nM.

Same assay, conditions: Eterna round: R107; input ligand: tryptophan 2.4 mM
In the case of “UGGAGUUGACGAAAAGUCAACUCCCGAGAAGGAGCGGACGAAAGUCCAGGUAGGUCGCUCGCUACCAGUGAUGUUGGUACAUAAA”, the “apparent KD of K4 kissing-loop reporter” value is reported as 109 nM. For “AGUACAAUGGCGGCCGCCACUCAAUGGCAGAUCAAAGAUCUGUAUCACUCAGUGAUGUUGAGUGAGAGGACCGGGCCUUUGUACA [Omei KL Tryp B SS B v9]”, the “apparent KD of K4 kissing-loop reporter” value was 187 nM. In the case of “AUUUAGACGAGUGAUGUUCGUGUUAAUACAGAGGAUAUGCGUGAUUGCAGAAGGCUGUAUUUAUAUAUGUUAUGUGGUUUUAAAA [whbob_Ex_FMNA__2th187]”, the “apparent KD of K4 kissing-loop reporter” value is reported as 66.3 nM. With “AAAAUAAGCCAGUGAUGUUGGUAUCCAGAUACCAGCGACGAAAGUCGCCCUUGGCAGCUGUGGACGUACAAAAUAAGUACGUCCU” the “apparent KD of K4 kissing-loop reporter” value was 126 nM. “AACUGUCAAGGAACUUGCAACAAAGGUGAUACCAGCAUCGAAAGAUGCCCUUGGCAGCACCAACUUGCAGUGAUGUUGCAAGUAA [(T)'-(H)'-(T1)-(T2)-(H1)-(H2)_Design7]” was tested, and the “apparent KD of K4 kissing-loop reporter” value was 286 nM. In the case of “AAUUUAUUAACUGAUACCAGACUUUAAUUUAUAUAUAUGUCUAGUGAUGUUAAACAUAUUGUCCCUUGGCAGCAGUAUUUAUUAA [JR_SSTheophyB_Sub020]”, the “apparent KD of K4 kissing-loop reporter” value is reported as 536 nM. For “CGAGUGAUGUUCGAAGAGUUGUUAAGCGAUACCAGCUAGGAGACUGGCCCUUGGCAGCGUAAUAAGUUAAUAAAUAAAUGAUCAC [whbob_Ex_Theo_A_th65]”, the “apparent KD of K4 kissing-loop reporter” value was 285 nM. In the case of “AAAUAGAUCAGUCAUCCAGUGAUGUUGGAAGGAGCGUGCGAAAGCACAGGUAGGUCGCCAAAAUAAAACUGGCUGAUCAAAAUAA”, the “apparent KD of K4 kissing-loop reporter” value is reported as 270 nM. For “AUUUAGACGAGUGAUGUUCGUGUUAUUACAGAGGAUAUGCGUAAAAGCAGAAGGCUGUAUUUAUAUUUGUUAUGUAAUUUUAAAA [JR_ExcFMNA_Sub006]”, the “apparent KD of K4 kissing-loop reporter” value was 63.9 nM. In the case of “UUAGAAGUAUACUUCAAGAGGUAUGCUGAUACCAGAGUCAAUUGACUCCCUUGGCAGCGGAUCGAGUGAUGUUCGUAACCUCAUU [AK3.1 SS Theophylline A]”, the “apparent KD of K4 kissing-loop reporter” value is reported as 141 nM. With “CGCGCUGCCUGAGGAUAUAGAAACGAGUGAUGUUCGUGGACAAGAGCCAGUGAUGUUGGGUUAUUUCUAGAAGGCAGGCGAUCGU [Exclusion FMN B GF5]” the “apparent KD of K4 kissing-loop reporter” value was 97.5 nM. For “CACCUAGGUACGGCCGCCACUAGAAGUGAUGUUUCGUCUGGUUCCGCAUUACGUGUACUUUCUUAUAGGACCGGGUAGCAAAUAG [theeternabot_exclusion_KL_Trp_B_3]”, the “apparent KD of K4 kissing-loop reporter” value was 311 nM. With “CGUCACACUUGAUGGUUAUCCAAUGAUGAUACCAGCCGUCGAGAUGGCCCUUGGCAGCAUGUGGUACAGUGAUGUUGUACAUUGG [theeternabot_sameState_KL_Theo_A_30]” the “apparent KD of K4 kissing-loop reporter” value was 258 nM. In the case of “UGUAUGUGAUUUGAUACCAGACCAGUUGGUGGUAUAUGAGUGAUGUUUAUGUUGGUUUGGGUCCCUUGGCAGCAAAUCGCAUACU [KL-SSTheoB11]”, the “apparent KD of K4 kissing-loop reporter” value is reported as 386 nM. “AAAUUCUUUUUUUUAUAUAACAAUUCAGAAGGAGCGUGGUAGAACACAGGUAGGUCGCUGAAUAUAAGACUAGUGAUGUUAGUAA [JR_SSArginiA_Sub010]” was tested, and the “apparent KD of K4 kissing-loop reporter” value was 153 nM. With “AAGGUAUCUAGAUGCUAGCAACAACUAGAUACCAGCAUCGAAAGAUGCCCUUGGCAGCUAGCAGUGAUGUUGCUAGCAAUAAGAA [Design4]” the “apparent KD of K4 kissing-loop reporter” value was 131 nM. With “AAAACUAUCAGAAGGAGCGUGGAAUAUUCAUCUGUAUUUAAUACGAGUGAUGUUCGUAAUUCACAGGUAGGUCGCUGAUCAAUAA [whbob_Ex_Arginine_B_2th154]” the “apparent KD of K4 kissing-loop reporter” value was 254 nM. For “AGACUACCACACUGUCAAUAGACAGUGUACUAGGAUAUGCUGAUAAGCAGAAGGAGUGAUGUUCCGAGGUAGUCAAUAAAAUAAU [FmnAX 13 U28+G66]”, the “apparent KD of K4 kissing-loop reporter” value was 242 nM. In the case of “GUUACGCAUGGAAGGAGCGCGAUUAAAUUUAGUGAGUGAUGUUCACAAAAUAAAACUAAAACGCAGGUAGGUCGCCAUGUGUAAC [Ex Arginine B K4 2]”, the “apparent KD of K4 kissing-loop reporter” value is reported as 159 nM. With “AAGUGAUGUUGUAGUGAUGUUGUGAUGUUGCAGGAUAUAUAGUGAUGUAGAAGGGUAUGUACAGAUUUUUUUUUUGAGUGAUGAU [ffdcmullin]” the “apparent KD of K4 kissing-loop reporter” value was 66.1 nM. With “GUCCAAACACAGUGAUGUUGUGAAUAUGAAGGAGCGGACGAAAGUCCAGGUAGGUCGCAUAAAGGACACCUACGAAAAGUAGGAA [#SwitchBubble 5 #K4Early]” the “apparent KD of K4 kissing-loop reporter” value was 159 nM. For “UGACUGGACUGAAGGAGCGCUUAACUCCUAGUGAUGUUAGGACAACGAGACAAAGUCUCGAAGCAGGUAGGUCGCAGUCUAGUCU”, the “apparent KD of K4 kissing-loop reporter” value was 199 nM. “UGACUGGACUGAAGGAGCGCUAAACUCCUAGUGAUGUUAGGAAAUACGAGACAAAGUCUCGGGCAGGUAGGUCGCAGUCUAGUCU [ArgBS 19 #SwitchBubble #StaticStem]” was tested, and the “apparent KD of K4 kissing-loop reporter” value was 101 nM. “AUUCUAUUGUGAAGGAGCGCGACUAGUAGUGAUGUUACUAUAUGACUUUAGUCUUAAUUCUCGCAGGUAGGUCGCACAAUAUAUA [JR_Nu_SSArginiB_Sub028]” was tested, and the “apparent KD of K4 kissing-loop reporter” value was 755 nM. For “GGUUCUGUUUUAGGUUUAGUGAUGUUGAAUCGAGGACCGGUACGGCCGCCACUCGGUGACGUCGUAACUUUGGAGGUCCUAACCA [theeternabot_exclusion_KL_Trp_A_47]”, the “apparent KD of K4 kissing-loop reporter” value was 438 nM. “ACUGCCAUUGCGGCCGCCACUAUCUCACUUUGCGAAUCUGCACCGACUGAGUGAUGUUCGGUAAAUAGGACCGGGCAAUGGGCCG [theeternabot_sameState_KL_Trp_B_26]” was tested, and the “apparent KD of K4 kissing-loop reporter” value was 657 nM. “GCCGUAGAUCGAAGGAGCGUGCAAGAAUCGUAGUGAUGUUACGGAGAGUGUCACGCCGUCGCACAGGUAGGUCGCGAUCUACGGC” was tested, and the “apparent KD of K4 kissing-loop reporter” value was 66.8 nM. “GGAGGGAUCUCGGCCGCCACUCAUAAGAAAUGGGCCUCAGGGAUAUAGUGAUGUUAUGUAAAGAAGAGGACCGGGAGAAAGAAGG [ExTryptoB.Dc]” was tested, and the “apparent KD of K4 kissing-loop reporter” value was 175 nM. For “GGAUCCACCAGUGAUGUUGGAGAAAACUCGAAGGAUAUGACGAAAGUCAGAAGGUUGUAGACUGGACAAAGUCCGGUCGGAUCCA [FmnA 23 G30+U56]”, the “apparent KD of K4 kissing-loop reporter” value was 421 nM. With “AAGGGCAGGACUUCCUUGCCGGAUAGAGAUACCAGCCCAGCAAAGGGCCCUUGGCAGCUCACUGACCUCAGUGAUGUUGAGGUUC [Xebisoer]” the “apparent KD of K4 kissing-loop reporter” value was 297 nM. In the case of “GCUACCUAUGCAGGAUAUGGUAUUACGAGUGAUGUUCGAGGCGAAUAGAGUGAUGUUCUAUUUCCACCAGAAGGGCAUAGGUAGC”, the “apparent KD of K4 kissing-loop reporter” value is reported as 124 nM. “UAUUAAUUGUCAGGAUAUCGAAAUCGAGUGAUGUUCGUAUAUCGACGAUAGUCGAUAUUAUUUAUACGAGAAGGGACAUUAUUUA [JR_SSFMNB_Sub003]” was tested, and the “apparent KD of K4 kissing-loop reporter” value was 386 nM. With “UCCUAGGCUCGAAAGAGCCUAGGUAAGACUCAGGAUAUCUGGAAACAGAGAAGGGAGCUACUAGUGAUGUUAGGAAUUCCCUAAG” the “apparent KD of K4 kissing-loop reporter” value was 106 nM.
